# Laboratory results as given in the RNAGym collection of RNA variant scans (doi:10.1073/pnas.2313332121).
# Variants at the floor of the assay were thinned out.
# B1: TPR 5TU (parent)
# chain: GGAUCUUCUCGAUCUAACAAAAAAGACAAAUCUGCCACAAAGCUUGAGAGCAUCUUCGGAUGCAGAGGCGGCAGCCUUCGGUGGCGCGAUAGCGCCAACGUUCUCAACUAUGACACGCAAAACGCGUGCUCCGUUGAAUGGAGUUUAUCAUG
# Variants of: B1
# Test: polymerase ribozyme fitness, log enrichment relative to wild type (log ratio); higher = more active; in vitro selection for triplet polymerase activity
# Procedure, shortened: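 Mutant libraries for each subunit of a heterodimeric triplet polymerase ribozyme were made by PCR and then transcribed. Each library underwent one round of in vitro selection in triplicate: annealing with a biotinylated primer, the partner subunit and triplets, frozen incubation at −7 °C, gel excision of extended constructs, streptavidin-bead capture and RT-PCR. Input and output libraries were Illumina-sequenced, and only genotypes with ≥10 input reads and ≥1 read per output were kept. Fitness is the logarithm, base 2, of genotype enrichment over wild-type enrichment, computed from inverse-variance-weighted replicate averages.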
row,Variant,polymerase ribozyme fitness (log ratio)
1,GGAUCUUCACGAUCUAACAAAGAAGACAAAUCUGCAACCAAGCUUGAGAGCAUCUUCGGAUGCAUAGGCGGCAGCCUUCGGUGGCGUGAUAGCGACAACGUUCUCAACUAUGACACGCAAAACGCAUGCUCCGUUAAACGGAGUUUAUCAUG [U9A A22G C36A A39C G65U C87U C95A G126A G136A U139C],≤ -4.2
2,GGAUCUUCACGAUCUAACAAAAAAGACAAAUCUGCCACAAAGCUUGAGAGCAUCUUCGGUCGCAGAGGCGGUAGCCUUCGGUGGCGCGAUAGUGCCAACGUUCUCAACUAUGACACGCAAAACGCGUGCUCCGUUGAAUGGAGUUUAUCAUG [U9A A60U U61C C72U C93U],≤ -4.2
3,GGAUCUUUUCGAUCUAACAAAAAAGACAAAUCUGCCACAAACCUUGAGAGCAUCUUCGGAUGCAGAGGCGGCAGCCUUCGGUGGAGCGAUAGCGCCAACGUUCUCAACUAUGACACGCAAAACGCGUGCUCCGUUGAAUGGAGUUUAUCAUG [C8U G42C C85A],≤ -4.2
4,GGAUCUUCACGAUCUAACAUAAAAGACAAAUCUGCAACAAAGCUUGAGAGCCUCUUCGGAUGCAGAGGCGGCAGCCUUCGGUGGCGCGAUAGCGCCAACGUUCUCAACUAUGUCACGCAAAACCCGUGCUCCGUUGAAUGGAGUUUAUCAUG [U9A A20U C36A A52C A113U G124C],≤ -4.2
5,GGAUCUUCAUGAUCUAACAAAAAAGACAAAUCUGCCACAAAGCUUGAGAGCAACUUCGGAUGCAGUGGCGGCAGCCUUCGGUGGCGAGAUAGCGCCAACGUUCUCAACUAUGACACGCUAAACGCAUGCUCCGUUGAAUGAAGUUUAUCAUG [U9A C10U U53A A66U C87A A119U G126A G141A],-4.03
6,GGAUCUUUUCGAUCGAACAAAAAAGACAAAUCUGCCACAAAGCAUGAGAGCAUUUUCGGAUGCAGAGGCGGCAGCCUUCGGUGACGCGAUAGCGCCAACGGUCUCAACUUUGACGCGCAAAACGCGUGCUCCUUUGAAUGGAGUUUAUCAUG [C8U U15G U44A C54U G84A U101G A110U A115G G133U],≤ -4.2
7,GGAUCUUUUCGAUCUAACAAAAAAGACAAAUCUGCCACAAAGCUUGAGAGCAUCUUCGGAUGCAGAGGCGGCAGCCUUCGGUGGCGGGAUAGCGCCAACCUUCUCAACUAUGACACGCAAAACGCGUGCUCCGUUGAACGGAGUUUAUGAUG [C8U C87G G100C U139C C149G],≤ -4.2
8,GGAUCUUUUCGAUCUAACAAAAAAGACAAAUCUGCCACAAAGCUUGAGAGCAUCUUCGGAUGCAGAGGCGGCAGCCUUCGGUGGCGCGAUAGCGCCAACGUUCUCAACUAUGACAAGCAAAACGCGUGCUCCGUUGAAUGGAGUUUAUCAUG [C8U C116A],-2.08
9,GGAUCUUCACGAUCUAACAAAAAAGACAAAUCUGCCACAAAGCUUGAGAGCAUCUUCGGAUGCAGAGGCGGCAGCCUUCGGUGGCGCGAUAGAGCCAACGUUCUCAACUAUGACACGCAAAACGCGUGCUCCGUUGAAUGGCGUUUAUCAUG [U9A C93A A142C],-3.81
10,GGAUCUUUUCGAUCUAACAAAAAAGACAAAUCUGCCACAAAGCUUGAGAGCAUCUUCGGAUGCAGAGGCGGCAGCCUUCGGUGUCGCGAUAGCGCCAACGUUCUCAACUAUGACACUCAAAACGCGUGCUCCGUUGAAUCGAGUUGAUCAUG [C8U G84U G117U G140C U146G],≤ -4.2
11,GGAUCUUCACGAUCUAACAAGAAAGACCAAUCUGCCACAAAGCUAGAGAGCCUCUUCGGAUGCAGAGGCGGCAGCCUUCGGUGGCGAGAUAGCGCCAACGUUCUCAACUAUGACACGCAAAACGCGUACUCCGUUUAAUGGAGUUUAUCAUG [U9A A21G A28C U45A A52C C87A G128A G136U],≤ -4.2
12,GGAUCUUUUCAAUCUAACAAAAAAGACAAAUCUGCCACAAAGCUUGAGAGCAUCUUCGGAUGCAGAGGCGGCAGCCUUCGGUGGCACGAUAGCGCCAACGUUCUCAACCAUGACACGCAAAAAGCGUGCUCGGUUGAAUGGAGUUUAUCAUG [C8U G11A G86A U109C C123A C132G],≤ -4.2
13,GGAUCUUCACGAUCUAACAAAAAAGACUAAUCUGCCACAAAGCUUGAGAGCAUCUUCGGAUGCAGGGGCGGCAGCCUUGGGUGGCGCGAUAGUGCCAACGUUCUCAACUAUGACACGCAAAACGCGUGCUCCGUUGAAUGGAGUUUAUCAUG [U9A A28U A66G C79G C93U],≤ -4.2
14,GGAUCUUUAUGAUCUAGCAAAAAAGACAAAUCUGCCACAAAGCUUGAGAGCAUCUUCGGAUGCAGGGGCGGCAGCCUUCGGUGGCGCGAUCGCGCCAACGUUCUCAACUAUGACACGCAAAACGCGUGCUCCGUUGAAUGGAGUUUAUCAUG [C8U U9A C10U A17G A66G A91C],≤ -4.2
15,GGAUCUUCACGAUCUCACAAAAAAGACAAAUCUGCCACAAAGCUUGAGAGCAUCUUCGGAUGCAGAGGCGGCAGCCUUCGGUGGAGAGAUAGCGCCAACGUUCUCAACUAUGACACGCAAAACGCGUGCUCCGUUGAAUGGAGUUUAUCAUG [U9A A16C C85A C87A],≤ -4.2
16,GGAUCUUCACGAUCUAACAAAAAAGAGAAAUCUGCCACAAAGCUUGAGAGCAUCUUCGGAUGCAGAGGCGGCUGCCUUCGGUGGCGCGAUAGUGCCAACGUGCUCAACUAUGACACCCAAAACGCGUGCUCCGUUGAAUGGAGUUUAUCAUG [U9A C27G A73U C93U U102G G117C],≤ -4.2
17,GGAUCUUUUCGACCUAACAAAAAAGAAAAAUCUGCCACAAAGCUUGAGAACAUCUUCGGAAUCAGAGGCGGCAGCCUUCGGUGGCGCGAUAGUGCCAACGUUCUCCACUGUGACACGCAAAACGGGUGCUCCGUUGAAUGGAGUUUAUCAUG [C8U U13C C27A G50A U61A G62U C93U A106C A110G C125G],≤ -4.2
18,GGAUCUUCACGAUCUAACAAAAAAGACAAAUCUGCCACAUAGCUUGAGAGCAUCUUCGUAUGCAGAGGCGGCAGCCUUCGGUGGCGCGAUAGCGCCAACGUUCUCAACUAUGACACGCAAAACGCGUGCUCCGAUGAAUGGAGUUUAUCAUG [U9A A40U G59U U134A],≤ -4.2
19,GGAUCUUUUCGAUCUAACAAAAAAGACAAAUCUGCCACAAAGCUUGAGAGCAUCUUCGGAUGUAGAGGCGGUAGCCUUCGGUGGCGCGAUAGCGCCAACGUUCUCAACUAUGACACGCAAAAUGCUUGCUCCGUUGAAUGGAGUUUAUCAUG [C8U C63U C72U C123U G126U],≤ -4.2
